In experiment [1] the target is recombinant human CD3ε/δ heterodimer (human) (UniProt P07766). Nature of the experiment: ELISA, coated CD3ε/δ. Background: An ELISA detects its analyte on a solid surface through an enzyme-linked reagent.
Experiment [2] concerns the target recombinant cynomolgus monkey CD3ε/δ heterodimer (cynomolgus monkey) (UniProt Q95LI5). The experiment can be described thus: ELISA, coated CD3ε/δ.
In experiment [3] the target is recombinant human CD3ε/δ heterodimer (human) (UniProt P07766). The experiment can be described thus: BLI (Octet), antigen on anti-Penta His sensor, antibody 50 nM. For orientation: Biolayer interferometry detects binding as a change in optical thickness at a sensor tip.
Experiment [4] deals with recombinant cynomolgus monkey CD3ε/δ heterodimer (cynomolgus monkey) (UniProt Q95LI5). Described as above.
recombinant cynomolgus monkey CD3ε/δ heterodimer (cynomolgus monkey), sequence (Q95LI5 22-117, stated change not applied, chain 1 of 2): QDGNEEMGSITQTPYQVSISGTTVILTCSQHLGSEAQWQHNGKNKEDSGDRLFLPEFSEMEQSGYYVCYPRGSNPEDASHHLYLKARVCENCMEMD
recombinant cynomolgus monkey CD3ε/δ heterodimer (cynomolgus monkey), sequence (Q95LI8 22-105, stated change not applied, chain 2 of 2, further chain): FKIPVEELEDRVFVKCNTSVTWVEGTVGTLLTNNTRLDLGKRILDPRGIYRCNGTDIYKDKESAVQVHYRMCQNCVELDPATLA

Substitutions are numbered along the chain they refer to.

recombinant human CD3ε/δ heterodimer (human), sequence (P07766 23-126, stated change not applied, chain 1 of 2): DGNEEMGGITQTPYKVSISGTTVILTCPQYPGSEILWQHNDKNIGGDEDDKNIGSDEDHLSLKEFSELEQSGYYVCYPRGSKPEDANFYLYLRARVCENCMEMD
recombinant human CD3ε/δ heterodimer (human), sequence (P04234 22-105, stated change not applied, chain 2 of 2, further chain): as the sequence (Q95LI8 22-105, stated change not applied, chain 2 of 2, further chain) above, with V5I, K15N, V20I, T32S, N33D, N34I, A64T, N74S, L83V counted along it

B1: A08 (antibody, human IgG1, lambda, L234A L235A, V domains shown)
VH: EVQLVESGGGLVQPGGSLKLSCAASGFTFNTYAMNWVRQASGKGLEWVGRIRSKYNNYATYYADSVKDRFTISRDDSKNTAYLQMNSLKTEDTAVYYCVRHGNFGNSYVSWFAYWGQGTLVTVSS
VL: QAVVTQEPSLTVSPGGTVTLTCRSSTGAVTTSNYANWFQQKPGQAPRGLIGGTNKRAPWTPARFSGSLLGDKAALTLSGAQPEDEAEYYCALWYSNLWVFGGGTKLTVLG
Usually Kd stands for the free concentration of one partner at which half of the binding sites on the other are occupied at equilibrium, for simple one-to-one binding. Usually koff stands for the first-order rate constant of dissociation. What is called kon is the rate constant with which the complex forms. Consider B1, for which, in experiment [1], the Absorbance (450 nm) was determined as 0.875. For the same molecule, the Absorbance (450 nm) in experiment [2] was 2.34. In experiment [3], the Kd is 22.2 nM, the koff came out at 0.00226 s⁻¹ and the kon worked out at 102000 M⁻¹ s⁻¹. In addition, in experiment [4], the Kd came out at 21.9 nM, the koff came out at 0.00321 s⁻¹ and the kon worked out at 147000 M⁻¹ s⁻¹.

B2: H16 (antibody, human IgG1, lambda, L234A L235A, V domains shown)
VH: B1 VH with G49A, K78Q, N79S, A81L
VL: B1 VL with F38V
In the case of B2, in experiment [1], the Absorbance (450 nm) amounted to 2.46. Also, the Absorbance (450 nm) in experiment [2] came to 2.87. In experiment [3], the Kd turned out to be 0.881 nM, the koff was found to be 0.00012 s⁻¹ and the kon came to 136000 M⁻¹ s⁻¹. In experiment [4], the Kd worked out at 1.13 nM, the koff came to 0.000206 s⁻¹ and the kon amounted to 182000 M⁻¹ s⁻¹.

B3: G16 (antibody, human IgG1, lambda, L234A L235A, V domains shown)
VH: B1 VH with G49A, K78Q, N79S
VL: B1 VL with F38V
Take B3: the Absorbance (450 nm) in experiment [1] came out at 2.48; in experiment [2] it was 2.77. Moreover, the Kd in experiment [3] was 1.32 nM; in experiment [4], 1.75 nM. Moreover, the koff in experiment [3] is 0.000201 s⁻¹; in experiment [4], 0.00034 s⁻¹. Further, the results for the kon in experiment [3] and in experiment [4] were 153000 M⁻¹ s⁻¹ and 195000 M⁻¹ s⁻¹, respectively.

B4: B08 (antibody, human IgG1, lambda, L234A L235A, V domains shown)
VH: B1 VH with A81L
VL: B1 VL
For the molecule B4, the Absorbance (450 nm) in experiment [1] came to 0.424. Further, the Absorbance (450 nm) in experiment [2] worked out at 2.19. In addition, in experiment [3], the Kd was 27.6 nM, the koff was 0.00407 s⁻¹ and the kon stood at 148000 M⁻¹ s⁻¹. Moreover, in experiment [4], the Kd came to 26.3 nM, the koff worked out at 0.00525 s⁻¹ and the kon amounted to 199000 M⁻¹ s⁻¹.

B5: A15 (antibody, human IgG1, lambda, L234A L235A, V domains shown)
VH: B1 VH
VL: B1 VL with F38V, D71G
Regarding B5, the results for the Absorbance (450 nm) in experiment [1] and in experiment [2] were 2.79 and 2.86, respectively. Further, the figures for the Kd in experiment [3] and in experiment [4] were 0.296 nM and 0.364 nM, respectively. The koff in experiment [3] amounted to 9.58e-05 s⁻¹; in experiment [4] it was 0.000165 s⁻¹. The kon in experiment [3] came out at 323000 M⁻¹ s⁻¹; in experiment [4] it was 453000 M⁻¹ s⁻¹.

B6: H15 (antibody, human IgG1, lambda, L234A L235A, V domains shown)
VH: B1 VH with G49A, K78Q, N79S, A81L
VL: B1 VL with F38V, D71G
B6: the Absorbance (450 nm) in experiment [1] worked out at 2.44. In addition, the Absorbance (450 nm) in experiment [2] worked out at 2.84. Also, in experiment [3], the Kd was 0.953 nM, the koff stood at 0.000189 s⁻¹ and the kon stood at 199000 M⁻¹ s⁻¹. In experiment [4], the Kd is 1.17 nM, the koff came out at 0.000269 s⁻¹ and the kon is 230000 M⁻¹ s⁻¹.

B7: B16 (antibody, human IgG1, lambda, L234A L235A, V domains shown)
VH: B1 VH with A81L
VL: B1 VL with F38V
In the case of B7, the Absorbance (450 nm) in experiment [1] was found to be 2.37. The Absorbance (450 nm) in experiment [2] turned out to be 2.93. In addition, in experiment [3], the Kd was determined as 0.445 nM, the koff came out at 0.000144 s⁻¹ and the kon came to 322000 M⁻¹ s⁻¹. Besides, in experiment [4], the equilibrium dissociation constant (Kd) came out at 0.66 nM, the koff stood at 0.000308 s⁻¹ and the kon is 466000 M⁻¹ s⁻¹.

B8: E15 (antibody, human IgG1, lambda, L234A L235A, V domains shown)
VH: B1 VH with G49A
VL: B1 VL with F38V, D71G
B8: the Absorbance (450 nm) in experiment [1] is 2.41. Further, the Absorbance (450 nm) in experiment [2] amounted to 2.7. In experiment [3], the Kd was 1.74 nM, the koff is 0.000392 s⁻¹ and the kon was determined as 225000 M⁻¹ s⁻¹. In experiment [4], the Kd is 1.86 nM, the koff came out at 0.00054 s⁻¹ and the kon came out at 290000 M⁻¹ s⁻¹.

B9: B07 (antibody, human IgG1, lambda, L234A L235A, V domains shown)
VH: B1 VH with A81L
VL: B1 VL with D71G
Take B9: the Absorbance (450 nm) in experiment [1] stood at 0.718. Also, the Absorbance (450 nm) in experiment [2] came out at 2.45. Also, in experiment [3], the Kd stood at 21.4 nM, the koff stood at 0.00423 s⁻¹ and the kon was found to be 198000 M⁻¹ s⁻¹. Also, in experiment [4], the dissociation constant Kd turned out to be 30.9 nM, the koff was 0.00642 s⁻¹ and the kon was determined as 208000 M⁻¹ s⁻¹.

B10: A16 (antibody, human IgG1, lambda, L234A L235A, V domains shown)
VH: B1 VH
VL: B1 VL with F38V
As for B10, the Absorbance (450 nm) in experiment [1] worked out at 2.54. The Absorbance (450 nm) in experiment [2] is 2.8. Further, in experiment [3], the Kd was 0.293 nM, the koff worked out at 8.07e-05 s⁻¹ and the kon is 275000 M⁻¹ s⁻¹. Besides, in experiment [4], the Kd was found to be 0.657 nM, the koff is 0.000243 s⁻¹ and the kon was determined as 370000 M⁻¹ s⁻¹.

B11: B15 (antibody, human IgG1, lambda, L234A L235A, V domains shown)
VH: B1 VH with A81L
VL: B1 VL with F38V, D71G
On to B11, for which the Absorbance (450 nm) in experiment [1] turned out to be 2.71. Further, the Absorbance (450 nm) in experiment [2] was 3.16. In addition, in experiment [3], the Kd turned out to be 0.521 nM, the koff stood at 0.000193 s⁻¹ and the kon was 371000 M⁻¹ s⁻¹. Further, in experiment [4], the Kd worked out at 0.627 nM, the koff was 0.000328 s⁻¹ and the kon came to 523000 M⁻¹ s⁻¹.

B12: F16 (antibody, human IgG1, lambda, L234A L235A, V domains shown)
VH: B1 VH with G49A, A81L
VL: B1 VL with F38V
B12: the Absorbance (450 nm) in experiment [1] stood at 2.46; in experiment [2], 2.85. Besides, the Kd in experiment [3] was found to be 0.852 nM; in experiment [4] it was 1.37 nM. The figures for the koff in experiment [3] and in experiment [4] were 0.00012 s⁻¹ and 0.000253 s⁻¹, respectively. The kon turned out to be 141000 M⁻¹ s⁻¹ in experiment [3] and 185000 M⁻¹ s⁻¹ in experiment [4].

B13: F15 (antibody, human IgG1, lambda, L234A L235A, V domains shown)
VH: B1 VH with G49A, A81L
VL: B1 VL with F38V, D71G
Turning to B13, the Absorbance (450 nm) came out at 2.49 in experiment [1] and 2.75 in experiment [2]. In addition, the Kd in experiment [3] was 1.04 nM; in experiment [4], 1.33 nM. For the same molecule, the koff was determined as 0.000206 s⁻¹ in experiment [3] and 0.000297 s⁻¹ in experiment [4]. The kon in experiment [3] is 197000 M⁻¹ s⁻¹; in experiment [4] it was 224000 M⁻¹ s⁻¹.

B14: G15 (antibody, human IgG1, lambda, L234A L235A, V domains shown)
VH: B1 VH with G49A, K78Q, N79S
VL: B1 VL with F38V, D71G
With B14, the Absorbance (450 nm) in experiment [1] amounted to 2.42. Moreover, the Absorbance (450 nm) in experiment [2] is 2.69. In experiment [3], the Kd stood at 1.59 nM, the koff is 0.000332 s⁻¹ and the kon is 209000 M⁻¹ s⁻¹. Also, in experiment [4], the Kd worked out at 1.72 nM, the koff is 0.000461 s⁻¹ and the kon was found to be 269000 M⁻¹ s⁻¹.

B15: E16 (antibody, human IgG1, lambda, L234A L235A, V domains shown)
VH: B1 VH with G49A
VL: B1 VL with F38V
In the case of B15, in experiment [1], the Absorbance (450 nm) turned out to be 2.4. Also, in experiment [2], the Absorbance (450 nm) was determined as 2.74. In experiment [3], the Kd came out at 1.76 nM, the koff came to 0.000284 s⁻¹ and the kon is 162000 M⁻¹ s⁻¹. For the same molecule, in experiment [4], the Kd turned out to be 2.19 nM, the koff was found to be 0.000482 s⁻¹ and the kon came out at 220000 M⁻¹ s⁻¹.
